In paper PMC9300613 (2022) one finds Kd data, which are given here for two molecules.

For this experiment, the target named is bovine brain αβ-tubulin (taxol-stabilised microtubules, dolastatin-induced rings or DARPin-capped free dimer … (bovine, UniProt Q6B856 1-445)). The experiment is described as follows: AMPPNP.
Chain of bovine brain αβ-tubulin (taxol-stabilised microtubules, dolastatin-induced rings or DARPin-capped free dimer … (chain, as listed by the source, chain 1 of 2): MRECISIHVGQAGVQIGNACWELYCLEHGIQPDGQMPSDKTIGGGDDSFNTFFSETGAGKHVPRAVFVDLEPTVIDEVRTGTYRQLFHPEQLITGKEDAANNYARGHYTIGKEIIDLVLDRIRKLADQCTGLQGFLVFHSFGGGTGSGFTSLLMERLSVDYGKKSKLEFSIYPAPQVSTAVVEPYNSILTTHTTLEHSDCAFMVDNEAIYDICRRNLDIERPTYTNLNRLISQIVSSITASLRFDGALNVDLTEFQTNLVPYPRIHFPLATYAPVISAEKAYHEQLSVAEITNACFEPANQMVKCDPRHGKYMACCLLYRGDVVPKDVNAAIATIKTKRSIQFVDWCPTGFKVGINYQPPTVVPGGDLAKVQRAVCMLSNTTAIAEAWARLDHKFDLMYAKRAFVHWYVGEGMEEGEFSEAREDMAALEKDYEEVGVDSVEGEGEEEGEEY
Chain of bovine brain αβ-tubulin (taxol-stabilised microtubules, dolastatin-induced rings or DARPin-capped free dimer … (Q6B856 whole entry, chain 2 of 2): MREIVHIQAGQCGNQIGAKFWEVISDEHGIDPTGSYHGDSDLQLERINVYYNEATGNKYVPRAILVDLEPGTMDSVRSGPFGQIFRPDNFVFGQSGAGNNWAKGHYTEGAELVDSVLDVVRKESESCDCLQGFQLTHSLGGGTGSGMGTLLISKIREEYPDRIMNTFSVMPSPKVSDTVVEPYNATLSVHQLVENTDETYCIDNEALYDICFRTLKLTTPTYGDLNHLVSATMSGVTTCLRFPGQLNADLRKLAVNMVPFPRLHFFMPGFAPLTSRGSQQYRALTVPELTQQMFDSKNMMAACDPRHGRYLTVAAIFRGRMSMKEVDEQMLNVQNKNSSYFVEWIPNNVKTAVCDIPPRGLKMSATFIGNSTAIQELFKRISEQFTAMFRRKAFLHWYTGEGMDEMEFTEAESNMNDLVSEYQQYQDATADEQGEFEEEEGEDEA

B1: CaKip3-MDN (Candida albicans Kip3 motor domain and slightly truncated neck-linker, residues 1-436) (domain or fragment)
chain: MSYPNSLGSPATVTSTSVPTAKQSSISVAVRVRPFTEAESNRLVKIDNDDVFLGDGCLTSDNNNNNNNSNSNGNGNGNGSSAANSSGASTSRRAIFNTLGGLRKIINVVDDRMLIFDPPETNPLTKMQRNAFPNSFKGSRIREHRFVFDRLFDEDCTQDQVYRNTTQPLLDSVLDGYNATVFAYGATGCGKTHTISGTPEDPGVIFLTMKELYNRIEELKDTKIIDISLSYLEIYNETIRDLLNPMTQCKNLVIREDANNKISVSNLSRHRPNSVEEVMQLILEGNKNRTCSPTEANATSSRSHAVLQINVIQKDRTGDITEEHTFATLSIIDLAGSERAAATKNRGARLNEGANINKSLLALGNCINALCDPRRRNHVPYRDSKLTRLLKFSLGGNCKTVMIVCVSPSSQHYDETLNTLKYADRAKEIKTKLIRN
One may read the Kd as the concentration at which binding is half-saturated. In the case of B1, binding was characterised by a dissociation constant (Kd) of 43 nM.

B2: HsKHC-MDN (human kinesin-1 heavy chain KIF5B construct equivalent to CaKip3-MDN) (domain or fragment)
chain: MADLAECNIKVMCRFRPLNESEVNRGDKYIAKFQGEDTVVIASKPYAFDRVFQSSTSQEQVYNDCAKKIVKDVLEGYNGTIFAYGQTSSGKTHTMEGKLHDPEGMGIIPRIVQDIFNYIYSMDENLEFHIKVSYFEIYLDKIRDLLDVSKTNLSVHEDKNRVPYVKGCTERFVCSPDEVMDTIDEGKSNRHVAVTNMNEHSSRSHSIFLINVKQENTQTEQKLSGKLYLVDLAGSEKVSKTGAEGAVLDEAKNINKSLSALGNVISALAEGSTYVPYRDSKMTRILQDSLGGNCRTTIVICCSPSSYNESETKSTLLFGQRAKTIKNTVCVN
The molecule B2 gave a Kd of 350 nM.
